Source: US20100047253A1 (Amgen, published 2010)
Substitutions are numbered along the chain they refer to. Values joined by “and” are separate entries in the source; they are usually repeats but may differ in a detail not shown here. Equal entries are not always repeated.

T1: Human IL-13-Mouse IL-13 Helix B (human IL-13 with mouse Helix B, UniProt P35225 35-146, limits assumed)
T1 construct: Expressed and secreted chimeric protein; also called Mo HelixB
T1 chain: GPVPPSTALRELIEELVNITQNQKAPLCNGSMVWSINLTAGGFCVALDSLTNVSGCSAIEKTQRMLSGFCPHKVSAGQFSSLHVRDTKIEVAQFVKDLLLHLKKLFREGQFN

T2: Human IL-13-Mouse IL-13 Helix C (human IL-13 with mouse Helix C, UniProt P35225 35-146, limits assumed)
T2 construct: Expressed and secreted chimeric protein; also called Mo HelixC
T2 chain: T1 chain with G42M, F43Y, V45A, D48E, T51I, E60Y, K61R, M65I, S67H, F69L

T3: mouse IL-13 (mouse, UniProt P20109 22-131, limits assumed)
T3 construct: also called murine IL-13
T3 sequence (looked up): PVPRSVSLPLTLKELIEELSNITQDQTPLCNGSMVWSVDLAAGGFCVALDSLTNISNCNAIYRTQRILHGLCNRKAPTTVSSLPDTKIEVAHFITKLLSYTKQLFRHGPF

T4: Human IL-13-Mouse IL-13 Helix D (human IL-13 with mouse Helix D)
T4 construct: Expressed and secreted chimeric protein; also called Mo HelixD
T4 chain: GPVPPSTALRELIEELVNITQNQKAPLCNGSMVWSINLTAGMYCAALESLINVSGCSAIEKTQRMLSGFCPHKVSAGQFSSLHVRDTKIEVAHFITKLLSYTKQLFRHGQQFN

T5: 693 phage
T5 peptide: YKIGEPHKDTYM

B1: mAb 157 (antibody, V domains shown)
VH: EVQLVESGGGLVKPGGSLRLSCAASGFTFSSYSMNWVRQAPGKGLEWVSYISTSYNYIYYADSVKGRFTISRDNAKNSLYLQMNSLRAEDTAVYYCARDQVGATLDAFDIWGQGTMVTVSS
VL: DIQMTQSPSSLSASVGDRVTITCRASQGIGDDLGWYQQKPGKAPKRLIYAASSLQSGVPSRFSGSGSGTEFTLTISSLQPEDFATYYCLQHNSYPFTFGPGTRVDIK
B2: mAb 356 (antibody, V domains shown)
VH: EVQLVESGGGLVKPGGSLRLSCAASGFTFSDYNMHWVRQAPGKGLEWVSSISYSSTYIYYADSVRGRFTISRDNAKNSLYLQMNSLRAEDTAVFYCAREDYYYYGLDVWGQGTTVTVSS
VL: B1 VL with G28D, G30R, D31N, A50D, T85I, F96W, P100Q, R103K, D105E
B3: mAb 176 (antibody, V domains shown)
VH: B1 VH with Y55N, N56S
VL: B1 VL with I21F, G28D, G30T, S60P, R103K, K107R
B4: mAb 243 (antibody, V domains shown)
VH: B1 VH with Y55N, N56S
VL: B1 VL with I21F, G28D, G30T, R103K, K107R
B5: mAb 264 (antibody, V domains shown)
VH: B1 VH with Y55N, N56S
VL: B1 VL with I21F, G28D, G30T, R103K, K107R
B6: mAb 183 (antibody, V domains shown)
VH: B1 VH with T53S, A61G
VL: B1 VL with R103K
B7: mAb 602 (antibody, V domains shown)
VH: EVQLVESGGGLVKPGGSLRLSCAASGFTFSNAWMSWVRQAPGKGLEWVGRIRSKIDGGTINYAAPVKGRFTISRDDSKNTLYLQMNSLKTEDTAVYYCATDQVGAYYGDYYGMDVWGQGTTVTVSS
VL: SYELTQPPSVSVSPGQTARITCSGDALPEKYAYWYQQKSGQAPVLVIYEDTKRPSGIPERFSGSSSGTMATLTISGAQVEDEADYYCYSTDSSGNHGVFGGGTKLTVLG
B8: mAb 643 (antibody, V domains shown)
VH: B7 VH with K54E, I60T, K89R
VL: B7 VL with T51S, Y88H
B9: mAb 785 (antibody, V domains shown)
VH: not shown
VL: SYVLTQPPSVSVAPGQTARITCGGNNIGNKIVHWYQQKPGQAPVLVVYDDSDRPSGIPERFSGSNSGNTATLTISRVEAGDEADYYCQVWDSSSDHVVFGGGTKLTVLG
B10: mAb 713 (antibody, V domains shown)
VH: EVQLLESGGGLVQPGGSLRLSCAASGFTFSSYAMSWVRQAPGKGLEWVSAFSGSGGSTYYADSVKGRFTISRDNSKNTLYLQMNSLRAEDTAVYYCVQDGLGPYFYNYGMDVWGQGTTVTVSS
VL: SYELTQPPSVSVSPGQTASITCSGDKLGDKYTCWFQQKPGQSPVLVIYHDSKRPSGIPERFSGSNSGDTATLTISGTQAMDEADYYCQAWDSSTYVFGTGTKVTVLG
B11: mAb 731 (antibody, V domains shown)
VH: B10 VH
VL: B10 VL with T32A
notes: also called sc731
B12: mAb 11.18 (antibody, V domains shown)
VH: QVQLVESGGGVVQPGRSLRLSCVASGFTFSSYDMHWVRQAPGKGLEWVAVIWYDGSNKYYADSVQGRFTISRDNSKNTLYLQMNSLRAEDTAVYYCTSEDSSGWYDGWFDPWGQGTLVTVSS
VL: DIQMTQSPSSLSASVGDRVTITCRASQGISNYLAWYQQKPGKVPKVLIYAASTLQSGVPSRFSGSGSGTDFTLTISSLQPEDVATYYCQKYNSAPFTFGPGTKVDIK
B13: mAb 693 (antibody, V domains shown)
VH: QVQLQESGPGLVKPSETLSLTCSVSGGSISSYYWSWIRQPAGKGLEWIGRIYMTGRTNYNSSLKSRVTMSIDTSKNQLSLKLSFMTAADTAVYYCARESGSSYSYDYWGQGTLVTVSS
VL: SYVLTQPPSVSVAPGQTARITCGGNNIGSKGVHWYQQKPGQAPVLVVYDDSDRPSGIPERFSGSNSGNTATLTISRVEAGDEADYYCQVWVSSSDHHVVFGGGTKLTVV
notes: also called sc693

Assays:
[1] = target: T6, human IL-13 (source not stated for the assay) (human, UniProt P35225 35-146, limits assumed); assay: cell-based or functional assay
[2] = target: T1, Human IL-13-Mouse IL-13 Helix B; assay: ELISA on secreted IL-13 chimeric proteins
[3] = target: T2, Human IL-13-Mouse IL-13 Helix C; assay: ELISA on secreted IL-13 chimeric proteins
mouse IL-13 = target: T3, mouse IL-13; assay: epitope mapping with mouse IL-13 chimeric molecules (ELISA)
[4] = target: T7, Recombinant Human IL-13 (R & D 213-IL-005) (human, UniProt P35225 35-146); assay: SPR (Biacore 2000), mAb captured on goat anti-human surface, IL-13 (R&D) injected, 1:1 model
T7 construct: also called IL-13 antigen (R&D Systems)

native human IL-13 [5] = target: T8, native human IL-13 (human, UniProt P35225 35-146, limits assumed); assay: KinExA, equilibrium in solution
T8 construct: also called hIL-13

[6] = target: T4, Human IL-13-Mouse IL-13 Helix D; assay: ELISA on secreted IL-13 chimeric proteins
[7] = target: T1, Human IL-13-Mouse IL-13 Helix B; assay: ELISA on secreted IL-13 chimeric proteins; '*' denotes that the binding was weak in the sandwich ELISA
native macaque IL-13 = target: T9, native macaque IL-13 (macaque monkey); assay: KinExA, equilibrium in solution
T9 construct: also called macaque monkey IL-13

native human IL-13 [8] = target: T8, native human IL-13; assay: KinExA kinetic, injection method
marmoset IL-13 = marmoset IL-13 (marmoset, UniProt A0A8I3WT33 35-145); assay: KinExA, n-curve analysis
[9] = target: T10, Human IL-13-rabbit Fc fusion protein (human IL-13 fused to rabbit Fc); assay: ELISA on plates coated with IL-13RbFc, detection with rabbit anti Hu IgG Fc HRP (paragraph 267 to paragraph 269)
T10 construct: also called IL-13-RbFc; IL-13 Rb Fc

[10] = target: T6, human IL-13 (source not stated for the …); assay: cell-based or functional assay; remark: listed apart in the source
native human IL-13 [11] = target: T8, native human IL-13; assay: KinExA kinetic, injection method; koff calculated from kon and KD
[12] = target: T6, human IL-13 (source not stated for the …); assay: cell-based or functional assay; remark: listed apart in the source
native human IL-13 [13] = target: T8, native human IL-13; assay: KinExA; KD from the equilibrium experiments, printed in the kinetic table (injection method row)
693 phage = target: T5, 693 phage; assay: Panning of mAb 693 against a 12-mer random peptide library expressed on phage, two rounds

marmoset IL-13, sequence (A0A8I3WT33 entry or part of it): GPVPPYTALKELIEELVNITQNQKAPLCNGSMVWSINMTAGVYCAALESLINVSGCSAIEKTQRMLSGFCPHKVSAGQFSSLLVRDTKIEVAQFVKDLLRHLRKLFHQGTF
T10 sequence (chain, as listed by the source limits assumed): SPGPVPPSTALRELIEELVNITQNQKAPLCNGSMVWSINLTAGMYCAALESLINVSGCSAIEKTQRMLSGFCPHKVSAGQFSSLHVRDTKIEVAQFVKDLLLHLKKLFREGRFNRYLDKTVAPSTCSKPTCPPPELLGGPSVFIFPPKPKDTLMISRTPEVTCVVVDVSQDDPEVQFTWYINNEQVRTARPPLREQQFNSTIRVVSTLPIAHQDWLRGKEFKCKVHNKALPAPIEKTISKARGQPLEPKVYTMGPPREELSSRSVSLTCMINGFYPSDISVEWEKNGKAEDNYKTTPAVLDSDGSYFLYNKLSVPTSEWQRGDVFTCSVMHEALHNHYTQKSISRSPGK
T9 sequence (Q864V6 19-132): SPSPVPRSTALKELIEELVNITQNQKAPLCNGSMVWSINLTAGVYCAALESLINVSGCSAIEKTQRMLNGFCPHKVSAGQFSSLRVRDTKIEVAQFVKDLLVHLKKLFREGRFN

Binder | IC50, IL-13 induced eotaxin release, Average [1] [nM] | IC50, IL-13 induced eotaxin release, n = 1 [1] [nM] | IC50, IL-13 induced eotaxin release, n = 2 [1] [nM] | IC50, IL-13 induced eotaxin release, n = 3 [1] [nM] | binding result [2] | binding result [3] | binding result (mouse IL-13) | Kd [4] | koff [4] | kon [4] | further results
B1 | 0.258 | 0.26 | 0.207 | 0.306 |  |  |  |  |  |  | 
B2 | 1 | 1.09 | 0.913 |  |  |  |  |  |  |  | 
B3 | 0.233 | 0.233 |  |  |  |  |  |  |  |  | 
B4 | 0.253 | 0.253 |  |  |  |  |  |  |  |  | 
B5 | 0.297 | 0.293 | 0.313 | 0.284 |  |  |  |  |  |  | 
B6 | 1.44 | 1.04 | 1.84 |  |  |  |  |  |  |  | 
B7 | 0.066 | 0.08 | 0.053 |  | binds | binds | no binding | 0.172 nM | 0.00051 s⁻¹ | 3e+06 M⁻¹ s⁻¹ | 
B8 | 0.035 | 0.044 | 0.028 | 0.033 | binds | binds | no binding | 0.066 nM | 0.00029 s⁻¹ | 4.4e+06 M⁻¹ s⁻¹ | Kd (native human IL-13 [5]): 0.013 nM
B9 | 0.176 | 0.223 | 0.144 | 0.16 | binds | binds | no binding |  |  |  | binding result [6]: no binding
B10 | 0.021 | 0.021 | 0.021 | 0.019 |  | no binding | no binding | 0.012 nM | 3.4e-05 s⁻¹ | 2.9e+06 M⁻¹ s⁻¹ | Kd (native human IL-13 [5]): 0.0036 nM; binding result [7]: binds
B11 | 0.016 | 0.011 | 0.019 | 0.017 |  | no binding | no binding | 0.009 nM | 3.5e-05 s⁻¹ | 3.9e+06 M⁻¹ s⁻¹ | Kd (native macaque IL-13): 1.6 nM; Kd (native human IL-13 [5]): 0.0089 nM; kon (native human IL-13 [8]): 4.7e+06 M⁻¹ s⁻¹; Kd (marmoset IL-13): < 0.007 nM; binding result [7]: binds; binding result [9]: binds; IC50, eotaxin production by HDFa cells, 300 pM IL-13 [10]: 28 pM; IC50, eotaxin production by HDFa cells, 600 pM IL-13 [10]: 56 pM; koff (native human IL-13 [11]): 4.2e-05 s⁻¹; EC50, HDLM-2 proliferation assay (3H-thymidine) [12]: 0.18 nM; EC50, L-1236 proliferation assay (3H-thymidine) [12]: 0.0052 nM; IC50, IL-13-induced CD23 expression on whole blood B cells (FACS) [12]: 0.87 nM; Kd (native human IL-13 [13]): 0.0089 nM
B12 | 0.245 | 0.213 | 0.304 | 0.217 |  |  |  |  |  |  | 
B13 | 0.054 | 0.038 | 0.069 | 0.053 | binds | binds | no binding | 0.189 nM and 0.109 nM | 0.00038 s⁻¹ and 0.00027 s⁻¹ | 2e+06 M⁻¹ s⁻¹ and 2.5e+06 M⁻¹ s⁻¹ | binding result [6]: no binding; binding result (693 phage): binds
